Substrate: CCCC(=O)SCC[N+](C)(C)C
Test: purified protein
Assay type: biochemical, Homo sapiens
Details: 24 °C, 317 pM enzyme, 0.1 mM DTNB, 0.005-3 mM substrate

B1: human butyrylcholinesterase (Homo sapiens) (protein)
chain: EDDIIIATKNGKVRGMNLTVFGGTVTAFLGIPYAQPPLGRLRFKKPQSLTKWSDIWNATKYANSCCQNIDQSFPGFHGSEMWNPNTDLSEDCLYLNVWIPAPKPKNATVLIWIYGGGFQTGTSSLHVYDGKFLARVERVIVVSMNYRVGALGFLALPGNPEAPGNMGLFDQQLALQWVQKNIAAFGGNPKSVTLFGESAGAASVSLHLLSPGSHSLFTRAILQSGSFNAPWAVTSLYEARNRTLNLAKLTGCSRENETEIIKCLRNKDPQEILLNEAFVVPYGTPLSVNFGPTVDGDFLTDMPDILLELGQFKKTQILVGVNKDEGTAFLVYGAPGFSKDNNSIITRKEFQEGLKIFFPGVSEFGKESILFHYTDWVDDQRPENYREALGDVVGDYNFICPALEFTKKFSEWGNNAFFYYFEHRSSKLPWPEWMGVMHGYEIEFVFGLPLERRDNYTKAEEILSRSIVKRWANFAKYGNPNETQNNSTSWPVFKSTEQKYLTLNTESTRIMTKLRAQQCRFWTSFFPKVLEMTGNIDEAEWEWKAGFHRWNNYMMDWKNQFNDYTSKKESCVGL
Question: For B1, which Km is on record?
Answer: 100 µM

From paper PMC2790002
